Measurements taken from PMC7193532 (Acta Crystallographica. Section D, Structural Biology, 2020).
Where “and” joins values, the source holds several entries; their conditions need not be identical. Equal values may be shown once.

Molecular target: the Ala and ValAla insertions and the Met1Ala substitution and Ala insertion
Test: SPR

For rufomycin I (RUF-I) (peptide), the fold reduction in binding affinity against wild type was 13 fold and 16 fold.
